From paper doi:10.1101/2024.10.15.618347

Target: YTHDC1 YTH domain (UniProt Q96MU7 345-509)
Experiment: EMSA

## AACUUAAUGUUUUUGCAUUGGACUUUGAGUU (ssRNA, m6A at position 22 (GGACU to GG(m6A)CU)) [MALAT1 oligo, m6A]
  binding result: binds
